Assay results as given in the Human Domainome abundance scans (Beltran et al. 2025).
± gives the uncertainty stated by the source.

B1: Kinesin-like protein KIF16B, residues 1213 to 1273; numbered along this chain, Q96L93 (parent)
chain: ETWTVFRRYSRFREMHKTLKLKYAELAALEFPPKKLFGNKDERVIAERRSHLEKYLRDFFS

Variants of: B1
Experiment: abundance fitness (aPCA) (normalised: wild type 0, dead -1); higher = more abundant; growth selection in yeast, the domain comes from the species named
Details: Homo sapiens

With ETWTVFRRYSRFREMHKTLKLKYAEPAALEFPPKKLFGNKDERVIAERRSHLEKYLRDFFS [L26P] as the variant, how does the abundance fitness read?
The abundance fitness was -0.652 ± 0.14.

For ETWTVFRRYSRFREMHKTLKLKYAEMAALEFPPKKLFGNKDERVIAERRSHLEKYLRDFFS [L26M], which abundance fitness is on record?
Its abundance fitness is -0.298 ± 0.085.

With ETWTVFRRYSRFREMHKTLKLKYAESAALEFPPKKLFGNKDERVIAERRSHLEKYLRDFFS [L26S] as the variant, how does the abundance fitness read?
Its abundance fitness is -0.77 ± 0.14.

Which abundance fitness does the source give for ETWTVFRRYSRFREMHKTLKLKYAEGAALEFPPKKLFGNKDERVIAERRSHLEKYLRDFFS [L26G] here?
The abundance fitness was -0.667 ± 0.082.

Which abundance fitness does the source give for ETWTVFRRYSRFREMHKTLKLKYAEDAALEFPPKKLFGNKDERVIAERRSHLEKYLRDFFS [L26D] here?
The abundance fitness was -0.573 ± 0.19.

For ETWTVFRRYSRFREMHKTLKLKYAEHAALEFPPKKLFGNKDERVIAERRSHLEKYLRDFFS [L26H], which abundance fitness is on record?
The abundance fitness was -0.946 ± 0.17.

For ETWTVFRRYSRFREMHKTLKLKYAEVAALEFPPKKLFGNKDERVIAERRSHLEKYLRDFFS [L26V], which abundance fitness is on record?
The abundance fitness was -0.364 ± 0.079.

For ETWTVFRRYSRFREMHKTLKLKYAEEAALEFPPKKLFGNKDERVIAERRSHLEKYLRDFFS [L26E], which abundance fitness is on record?
The abundance fitness was -0.819 ± 0.15.

Which abundance fitness does the source give for ETWTVFRRYSRFREMHKTLKLKYAECAALEFPPKKLFGNKDERVIAERRSHLEKYLRDFFS [L26C] here?
Its abundance fitness is -0.047 ± 0.19.

Which abundance fitness does the source give for ETWTVFRRYSRFREMHKTLKLKYAEFAALEFPPKKLFGNKDERVIAERRSHLEKYLRDFFS [L26F] here?
The abundance fitness was 0.158 ± 0.1.

For ETWTVFRRYSRFREMHKTLKLKYAEWAALEFPPKKLFGNKDERVIAERRSHLEKYLRDFFS [L26W], which abundance fitness is on record?
The abundance fitness was -0.033 ± 0.067.

With ETWTVFRRYSRFREMHKTLKLKYAEYAALEFPPKKLFGNKDERVIAERRSHLEKYLRDFFS [L26Y] as the variant, how does the abundance fitness read?
The abundance fitness was -0.306 ± 0.34.

Which abundance fitness does the source give for ETWTVFRRYSRFREMHKTLKLKYAERAALEFPPKKLFGNKDERVIAERRSHLEKYLRDFFS [L26R] here?
The abundance fitness was -0.872 ± 0.11.

With ETWTVFRRYSRFREMHKTLKLKYAEQAALEFPPKKLFGNKDERVIAERRSHLEKYLRDFFS [L26Q] as the variant, how does the abundance fitness read?
The abundance fitness was -1.04 ± 0.21.

With ETWTVFRRYSRFREMHKTLKLKYAEKAALEFPPKKLFGNKDERVIAERRSHLEKYLRDFFS [L26K] as the variant, how does the abundance fitness read?
Its abundance fitness is -0.279 ± 0.16.

For ETWTVFRRYSRFREMHKTLKLKYAEAAALEFPPKKLFGNKDERVIAERRSHLEKYLRDFFS [L26A], which abundance fitness is on record?
The abundance fitness was -0.661 ± 0.14.

For ETWTVFRRYSRFREMHKTLKLKYAETAALEFPPKKLFGNKDERVIAERRSHLEKYLRDFFS [L26T], which abundance fitness is on record?
Its abundance fitness is -0.851 ± 0.13.

Which abundance fitness does the source give for ETWTVFRRYSRFREMHKTLKLKYAENAALEFPPKKLFGNKDERVIAERRSHLEKYLRDFFS [L26N] here?
The abundance fitness was -0.694 ± 0.19.

For ETWTVFRRYSRFREMHKTLKLKYEELAALEFPPKKLFGNKDERVIAERRSHLEKYLRDFFS [A24E], which abundance fitness is on record?
The abundance fitness was -0.174 ± 0.1.

Which abundance fitness does the source give for ETWTVFRRYSRFREMHKTLKLKYRELAALEFPPKKLFGNKDERVIAERRSHLEKYLRDFFS [A24R] here?
The abundance fitness was 0.178 ± 0.049.

For ETWTVFRRYSRFREMHKTLKLKYVELAALEFPPKKLFGNKDERVIAERRSHLEKYLRDFFS [A24V], which abundance fitness is on record?
Its abundance fitness is -0.321 ± 0.095.

For ETWTVFRRYSRFREMHKTLKLKYPELAALEFPPKKLFGNKDERVIAERRSHLEKYLRDFFS [A24P], which abundance fitness is on record?
Its abundance fitness is -0.518 ± 0.33.

For ETWTVFRRYSRFREMHKTLKLKYTELAALEFPPKKLFGNKDERVIAERRSHLEKYLRDFFS [A24T], which abundance fitness is on record?
Its abundance fitness is -0.115 ± 0.1.

For ETWTVFRRYSRFREMHKTLKLKYWELAALEFPPKKLFGNKDERVIAERRSHLEKYLRDFFS [A24W], which abundance fitness is on record?
Its abundance fitness is -0.569 ± 0.12.

With ETWTVFRRYSRFREMHKTLKLKYSELAALEFPPKKLFGNKDERVIAERRSHLEKYLRDFFS [A24S] as the variant, how does the abundance fitness read?
Its abundance fitness is -0.24 ± 0.1.

With ETWTVFRRYSRFREMHKTLKLKYLELAALEFPPKKLFGNKDERVIAERRSHLEKYLRDFFS [A24L] as the variant, how does the abundance fitness read?
The abundance fitness was -0.352 ± 0.075.

With ETWTVFRRYSRFREMHKTLKLKYQELAALEFPPKKLFGNKDERVIAERRSHLEKYLRDFFS [A24Q] as the variant, how does the abundance fitness read?
Its abundance fitness is -0.227 ± 0.12.

For ETWTVFRRYSRFREMHKTLKLKYMELAALEFPPKKLFGNKDERVIAERRSHLEKYLRDFFS [A24M], which abundance fitness is on record?
The abundance fitness was -0.107 ± 0.13.

For ETWTVFRRYSRFREMHKTLKLKYFELAALEFPPKKLFGNKDERVIAERRSHLEKYLRDFFS [A24F], which abundance fitness is on record?
The abundance fitness was -0.331 ± 0.17.

With ETWTVFRRYSRFREMHKTLKLKYGELAALEFPPKKLFGNKDERVIAERRSHLEKYLRDFFS [A24G] as the variant, how does the abundance fitness read?
Its abundance fitness is -0.446 ± 0.11.

Which abundance fitness does the source give for ETWTVFRRYSRFREMHKTLKLKYAELKALEFPPKKLFGNKDERVIAERRSHLEKYLRDFFS [A27K] here?
Its abundance fitness is 0.286 ± 0.055.

For ETWTVFRRYSRFREMHKTLKLKYAELQALEFPPKKLFGNKDERVIAERRSHLEKYLRDFFS [A27Q], which abundance fitness is on record?
The abundance fitness was 0.166 ± 0.09.

With ETWTVFRRYSRFREMHKTLKLKYAELWALEFPPKKLFGNKDERVIAERRSHLEKYLRDFFS [A27W] as the variant, how does the abundance fitness read?
The abundance fitness was -0.362 ± 0.073.

Which abundance fitness does the source give for ETWTVFRRYSRFREMHKTLKLKYAELDALEFPPKKLFGNKDERVIAERRSHLEKYLRDFFS [A27D] here?
Its abundance fitness is -0.388 ± 0.11.

With ETWTVFRRYSRFREMHKTLKLKYAELCALEFPPKKLFGNKDERVIAERRSHLEKYLRDFFS [A27C] as the variant, how does the abundance fitness read?
The abundance fitness was 0.099 ± 0.087.

With ETWTVFRRYSRFREMHKTLKLKYAELVALEFPPKKLFGNKDERVIAERRSHLEKYLRDFFS [A27V] as the variant, how does the abundance fitness read?
The abundance fitness was -0.041 ± 0.058.

For ETWTVFRRYSRFREMHKTLKLKYAELTALEFPPKKLFGNKDERVIAERRSHLEKYLRDFFS [A27T], which abundance fitness is on record?
The abundance fitness was 0.127 ± 0.078.

With ETWTVFRRYSRFREMHKTLKLKYAELSALEFPPKKLFGNKDERVIAERRSHLEKYLRDFFS [A27S] as the variant, how does the abundance fitness read?
Its abundance fitness is -0.099 ± 0.069.

For ETWTVFRRYSRFREMHKTLKLKYAELGALEFPPKKLFGNKDERVIAERRSHLEKYLRDFFS [A27G], which abundance fitness is on record?
The abundance fitness was -0.293 ± 0.047.

Which abundance fitness does the source give for ETWTVFRRYSRFREMHKTLKLKYAELFALEFPPKKLFGNKDERVIAERRSHLEKYLRDFFS [A27F] here?
Its abundance fitness is -0.215 ± 0.32.

With ETWTVFRRYSRFREMHKTLKLKYAELLALEFPPKKLFGNKDERVIAERRSHLEKYLRDFFS [A27L] as the variant, how does the abundance fitness read?
The abundance fitness was -0.02 ± 0.061.

For ETWTVFRRYSRFREMHKTLKLKYAELMALEFPPKKLFGNKDERVIAERRSHLEKYLRDFFS [A27M], which abundance fitness is on record?
Its abundance fitness is 0.246 ± 0.091.

Which abundance fitness does the source give for ETWTVFRRYSRFREMHKTLKLKYAELNALEFPPKKLFGNKDERVIAERRSHLEKYLRDFFS [A27N] here?
Its abundance fitness is -0.281 ± 0.16.

With ETWTVFRRYSRFREMHKTLKLKYAELRALEFPPKKLFGNKDERVIAERRSHLEKYLRDFFS [A27R] as the variant, how does the abundance fitness read?
The abundance fitness was 0.245 ± 0.053.
